The results in this text go back to patent publication US20240368289A1 (LAEKNA THERAPEUTICS SHANGHAI, published 2024).

Changes are numbered by the printed parent chain.

Test [1] has as its target T1, ACVR2A mouse Fc fusion protein (mouse, UniProt P27037 20-135 (human entry), limits assumed).
T1 construct: not shown: mouse Fc
Nature of the test: Activin A competitive ELISA: ACVR2A mouse Fc fusion coated, IgG titrated, then 16.7 nM Activin A added; bound Activin A detected (luminescence). The procedure: (§1) 2.3 Activin A Competitive ELISA. To select ACVR2A hits that could block the interaction between ACVR2A and its ligand Activin A, a competitive ELISA assay was set up. 30 μL 4.17 nM ACVR2A mouse Fc fusion protein was coated in 384-well HB plate at 4° C. overnight following blocking with 5% BSA. Anti-ACVR2A Fab fragment or antibodies with different concentrations were added to the plate and incubated on an orbital shaker at room temperature for 1 hours to allow binding of the antibodies. […] After 5 times washing with TBST, 30 μl of 20 nM goat anti-activin A polyclonal antibody (Abcam, ab7153) in blocking buffer was added into plate and incubated at room temperature for 1 hour. Last, 30 μl of anti-goat IgG-HRP (Beyotime, A0181) in blocking buffer (1:500 dilution) was added to plate for another 30 min incubation following washing step. Luminescence signal was collected on Tecan infinite M1000 after adding 30 μl ECL substrate.

The target of test [2] is ACVR2A on HEK293T-B1 cells (ACVR2B knockout stable cell line) (UniProt P27037 20-513). Nature of the test: cell-based or functional assay.
ACVR2A on HEK293T-B1 cells (ACVR2B knockout stable cell line), sequence (P27037 20-513): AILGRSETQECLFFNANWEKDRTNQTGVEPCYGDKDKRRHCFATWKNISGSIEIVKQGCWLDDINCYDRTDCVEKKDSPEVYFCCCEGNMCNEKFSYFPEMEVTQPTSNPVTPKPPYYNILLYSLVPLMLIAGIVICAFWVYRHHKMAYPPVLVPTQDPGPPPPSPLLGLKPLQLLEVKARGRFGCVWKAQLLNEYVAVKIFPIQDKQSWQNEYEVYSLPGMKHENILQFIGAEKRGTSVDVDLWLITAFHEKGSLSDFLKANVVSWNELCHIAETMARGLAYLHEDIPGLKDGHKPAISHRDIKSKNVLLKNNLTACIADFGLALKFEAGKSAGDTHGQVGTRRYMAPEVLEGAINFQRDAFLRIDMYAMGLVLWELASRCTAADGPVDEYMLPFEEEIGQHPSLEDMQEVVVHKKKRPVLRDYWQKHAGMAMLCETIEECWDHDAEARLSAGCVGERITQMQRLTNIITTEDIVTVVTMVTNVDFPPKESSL
The target of test [3] is T2, recombinant protein comprising the human ACVR2A extracellular domain (ECD) fused to the human IgG1 Fc region (human, UniProt P27037 20-135).
T2 construct: extracellular domain; also called ACVR2A-Fc; ACVR2A-FC; not shown: human IgG1 Fc region
T2 sequence (P27037 20-135): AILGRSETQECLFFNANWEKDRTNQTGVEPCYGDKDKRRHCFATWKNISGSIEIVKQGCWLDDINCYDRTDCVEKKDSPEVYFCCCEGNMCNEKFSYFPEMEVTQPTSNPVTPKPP
Nature of the test: SPR, Biacore; format and antigen construct not given.

Test [4] has as its target T1, ACVR2A mouse Fc fusion protein. Nature of the test: Activin A competitive ELISA; ACVR2A mouse Fc coated, antibody titrated, competitor activin A. The procedure:
as §1
On the technique in general: In an ELISA, binding on a coated surface is turned into a signal by an enzyme label.

The target in test [5] is T2, recombinant protein comprising the …. Nature of the test: SPR, Biacore 3000 (1st test); ACVR2A-Fc captured by anti-human Fc, Fab injected. From the text: (§2) 2.2 Surface Plasmon resonance (SPR) measurements and affinity analysis by anti-human Fc capture format. After affinity panning, output-3 (03) of CDRH1 library were screened for binding ability by Fab ELISA and followed by NGS DNA sequencing. Based on binding Elisa and sequence abundance from NGS data, 11 clones were select for SPR analysis. Approximately 100-800 resonance units (RU) of antigen ACVR2A, was captured by anti-human Fc immobilized on a channel of a CM5 chip with an activated amine group. After immobilization, Fab antibodies were injected into the channels at 25° C. in HBS-EP buffer, with a flow rate of 30 μL/min, 1 min. When the data collection was finished in each cycle, the sensor surface was regenerated using 80 mM NaOH with a flow rate of 30 μL/min, 15 sec and reused chip in next cycle. After subtraction of reference surface and buffer injection, curve was locally fitted with BIA evaluation version 4.1 using a 1:1 Langmuir binding mode.
(§3) The affinity of selected 11 anti-ACVR2A monoclonal antibody clones were determined on Biacore®3000 and Biacore®8000 as shown in Table 4 below.
(In SPR one partner is held on a chip, and binding of the other changes the refractive index at the surface.)

For test [6] the target is unchanged. Put plainly: SPR, Biacore 8000 (2nd test); ACVR2A-Fc captured by anti-human Fc, Fab injected.
Text: as §2, §3

Test [7] shares this target. Nature of the test: SPR, Biacore 3000 (1st test); ACVR2A-Fc captured by anti-human Fc, Fab injected; 1st test (Biacore 3000).
Text: as §2, §3

Broadly, the Kd is the equilibrium constant for the complex coming apart. What is called koff is the first-order rate constant of dissociation. The kon is a measure of how fast the partners come together. As usually defined, the IC50 is the concentration needed to halve the response being measured.

T1 sequence (P27037 20-135 limits assumed): as the sequence (P27037 20-135) above

B1: 366 (antibody, V domains shown)
VH: QVQLVQSGAEVKKPGSSVKVSCKASGFQFRTSLISWVRQAPGQGLEWMGGLIPIFGTANYAQKFQGRVTITADESTSTAYMELSSLRSEDTAVYYCVKDLTWTNLGLDIWGQGTMVTVSS
VL: EIVMTQSPSSLSASVGDTVTITCRASQGASQWLKWYQQKPGKAPRLLIYAASSLHSGVPSRFSGSGSGTHFTLTISSLQPEDFATYFCQQSYSTPFTFGPGTKLEIK
Turning to B1, the “IC50 (read off the curve)” value in test [1] is ~9 nM.

B2: IgG NGS-1 (CDR shuffling) (antibody, V domains shown)
VH: B1 VH
VL: EIVMTQSPSSLSASVGDTVTITCRASQGVSRWLAWYQQKPGKAPRLLIYSAASSLYSGVPSRFSGSGSGTHFTLTISSLQPEDFATYFCQQSYSTPFTFGPGTKLEIK
notes: IgG: human IgG1 / kappa from pFUSE vectors, made in 293F cells
In the case of B2, in test [2], the “IC50 (M), HEK293T-B1 CAGA-Luc, Activin A” value is 3.28e-09 M and the “IC50 (M), HEK293T-B1 CAGA-Luc, GDF8” value worked out at 2.42e-10 M. In addition, in test [3], the Kd came out at 0.638 nM, the koff came out at 0.000118 s⁻¹ and the kon amounted to 185000 M⁻¹ s⁻¹. The IC50 in test [4] stood at 1.86 nM.

B3: clone A (Fab) (Fab, V domains shown)
VH: B1 VH with F27G, R30Y, T31H, L33R, L51I, F55Y
VL: B1 VL with A29V, Q31R, K34A
notes: Fab made in E. coli TG1 and purified on Ni-NTA
For the molecule B3, in test [5], the Kd was determined as 5.29 nM and the koff is 0.00227 s⁻¹. In test [6], the Kd came to 5.35 nM, the koff was found to be 0.00257 s⁻¹ and the kon is 481000 M⁻¹ s⁻¹. Moreover, in test [7], the kon amounted to 429000 M⁻¹ s⁻¹.
